In paper PMC7870846, “Incorporation of sensing modalities into de novo designed fluorescence-activating proteins” (Nature Communications, 2021):

Assay: Photophysical characterization: absorbance, excitation/emission spectra, extinction coefficients, quantum yields
Type: physicochemical
Experimental: Protein preparation: mFAP2a, mFAP2b, and mFAP10 were produced by large-scale protein purification and SEC purification, and dialyzed overnight into DPBS that was adjusted to pH 7.40 using NaOH.
Chromophore preparation: DFHBI (Lucerna) and DFHBI-1T (Lucerna) were dissolved to 20.0 mM in 100% DMSO, and diluted in DPBS (pH 7.40) to measure absorbances on a Jasco V-750 spectrophotometer at peak absorbance wavelengths (417 nm for DFHBI and 422 nm for DFHBI-1T). Following background subtraction of identical buffer without chromophore, Beer’s Law was used to calculate the molar chromophore concentrations of the stock solutions using previously reported extinction coefficients.
Preparation of protein–chromophore complexes: For quantum yield measurements, 1.00 μM, 836 nM, or 919 nM chromophore solutions in DPBS (pH 7.40) at 4.00 mL final volumes were prepared for the following eight conditions: DFHBI only, DFHBI-1T only, 43.5 µM 6xHis-mFAP10 with DFHBI, 43.5 µM 6xHis-mFAP10 with DFHBI-1T, 134 μM 6xHis-mFAP2a with DFHBI, 134 μM 6xHis-mFAP2a with DFHBI-1T, 206 μM 6xHis-mFAP2b with DFHBI, and 206 μM 6xHis-mFAP2b with DFHBI-1T.
Extinction coefficients: Absorbance spectra of protein–chromophore complexes were first measured with a Thermo Scientific BioMate 3S UV–Vis Spectrophotometer (1 nm interval, 800 nm min^−1). The extinction coefficients were then calculated using Beer’s Law:12 A=ε⋅b⋅c, where A is peak absorbance, ε is extinction coefficient, b is path length (1 cm), and c is concentration (1.00 μM, 836 nM, or 919 nM).
Relative quantum yield: A Perkin-Elmer LS-B Luminescence Spectrophotometer (10 nm bandwidth, 1 nm interval, 100 nm min^−1) was used. The fluorescence emission spectra of the protein–chromophore complexes (in DPBS, pH 7.40) and reference dye Acridine Yellow G (in methanol) were first obtained, and the quantum yield was then calculated using the equation[53]:13 ϕc=ϕr⋅1−10^−Ar(λex)/1−10^−Ac(λex)⋅∫Fc(λ)⋅dλ/∫Fr(λ)⋅dλ⋅nc2/nr2, where ϕ is quantum yield, A(λex) is absorbance at the excitation wavelength λex ( λex = 440 nm), F is fluorescence emission, n is refractive index of the solution (1.3350 for DPBS at pH 7.40 and 1.3284 for methanol), and the subscripts “c” and “r” refer to the protein–chromophore complex measured and the reference dye, respectively. […]
Absolute quantum yield: An integrating sphere instrument (Hamamatsu C9920-12) (6 nm excitation bandwidth, 1 nm interval) and a high-sensitivity photonic multi-channel analyzer (Hamamatsu C10027-01) were used to measure a light emission spectrum. Absolute quantum yields were measured for solutions of protein–chromophore complexes in DPBS (pH 7.40) in which ≥95% of the total chromophore was occupying the protein-binding pocket (Table 1). […]

B1: mFAP2b: mFAP2.5 with V67I, "b" for bright (protein)
chain: SRAAQLLPGTWQVTMTNEDGQTSQGQWHFQPRSPYTMDIVAQGTISDGRPIVGYGKATVKTPDTLDIDITYPSLGNIKAQGQITMDSPTQFKWDATTKGENDFHGRLTGTLQRQE
- brighter fluorescence with DFHBI than DFHBI-1T: ~ 30 fold
